Earlier results as cited in publication PMC3634455.

Assays:
[1] = target: plasminogen (Homo sapiens) (UniProt P00747)
[2] = target: tPA (Homo sapiens) (UniProt P00750)
UniProt P00750, sequence (P00750 36-562): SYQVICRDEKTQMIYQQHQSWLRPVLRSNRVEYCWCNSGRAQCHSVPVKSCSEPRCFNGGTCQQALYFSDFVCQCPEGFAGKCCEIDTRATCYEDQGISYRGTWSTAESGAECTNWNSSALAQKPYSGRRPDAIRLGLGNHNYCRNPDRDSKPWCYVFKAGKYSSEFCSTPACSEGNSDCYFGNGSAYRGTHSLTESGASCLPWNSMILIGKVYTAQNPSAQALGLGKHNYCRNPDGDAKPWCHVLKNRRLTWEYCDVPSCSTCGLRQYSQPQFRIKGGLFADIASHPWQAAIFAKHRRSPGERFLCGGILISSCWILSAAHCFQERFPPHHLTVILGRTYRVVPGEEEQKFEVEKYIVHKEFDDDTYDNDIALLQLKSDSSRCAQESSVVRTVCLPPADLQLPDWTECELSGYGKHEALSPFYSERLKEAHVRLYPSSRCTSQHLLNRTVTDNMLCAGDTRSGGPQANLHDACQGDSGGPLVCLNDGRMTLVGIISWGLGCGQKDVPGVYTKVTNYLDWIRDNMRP

UniProt P00747, sequence (P00747 20-810): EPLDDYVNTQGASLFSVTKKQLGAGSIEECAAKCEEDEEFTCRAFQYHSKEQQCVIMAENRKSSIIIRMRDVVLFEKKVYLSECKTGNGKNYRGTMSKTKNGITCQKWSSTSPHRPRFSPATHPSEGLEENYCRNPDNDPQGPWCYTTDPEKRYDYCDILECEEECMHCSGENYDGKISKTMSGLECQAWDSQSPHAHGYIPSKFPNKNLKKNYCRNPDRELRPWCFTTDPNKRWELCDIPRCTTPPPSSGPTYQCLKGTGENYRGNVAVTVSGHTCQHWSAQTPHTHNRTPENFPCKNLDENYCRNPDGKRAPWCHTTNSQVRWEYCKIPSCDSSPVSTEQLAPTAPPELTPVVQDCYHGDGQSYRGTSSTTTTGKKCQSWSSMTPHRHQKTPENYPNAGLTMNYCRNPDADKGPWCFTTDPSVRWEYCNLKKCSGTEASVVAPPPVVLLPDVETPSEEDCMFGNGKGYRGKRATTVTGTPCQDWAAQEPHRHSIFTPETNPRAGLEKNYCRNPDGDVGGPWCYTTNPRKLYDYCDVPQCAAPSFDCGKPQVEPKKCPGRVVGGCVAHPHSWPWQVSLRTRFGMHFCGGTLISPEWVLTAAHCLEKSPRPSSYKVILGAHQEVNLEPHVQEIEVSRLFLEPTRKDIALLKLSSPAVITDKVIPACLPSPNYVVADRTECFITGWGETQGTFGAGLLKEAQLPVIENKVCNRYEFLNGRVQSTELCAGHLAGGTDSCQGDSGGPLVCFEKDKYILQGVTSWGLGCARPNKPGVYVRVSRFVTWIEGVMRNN

Substance: S100A10 (annexin A2 heterotetramer) (from UniProt P60903)
- Kd [1]: 110 nM
- Kd [2]: 680 nM
